Results published in US20260216242A1, “ALPP-SPECIFIC VARIANT ANTIGEN BINDING MOLECULES” (ALMAC DISCOVERY LIMITED, priority 2022, published 2026).

T1: ALPI His homodimer (Homo sapiens, UniProt P09923)
T1 sequence (P09923 with tags, fused parts or gaps): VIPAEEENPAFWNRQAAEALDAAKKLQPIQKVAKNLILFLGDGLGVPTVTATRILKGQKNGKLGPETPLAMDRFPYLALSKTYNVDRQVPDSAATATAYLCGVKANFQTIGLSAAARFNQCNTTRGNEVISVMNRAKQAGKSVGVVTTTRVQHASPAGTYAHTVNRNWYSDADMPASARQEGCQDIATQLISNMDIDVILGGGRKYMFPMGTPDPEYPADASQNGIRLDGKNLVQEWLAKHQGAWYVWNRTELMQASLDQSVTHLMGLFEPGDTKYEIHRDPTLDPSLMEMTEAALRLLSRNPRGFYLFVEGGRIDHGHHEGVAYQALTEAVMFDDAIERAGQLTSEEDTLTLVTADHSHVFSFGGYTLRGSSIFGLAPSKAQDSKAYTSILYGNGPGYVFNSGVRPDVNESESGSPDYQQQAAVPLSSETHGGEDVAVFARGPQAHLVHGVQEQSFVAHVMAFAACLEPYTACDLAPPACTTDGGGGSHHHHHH

T2: hALPI (Homo sapiens, UniProt P09923)
T2 sequence (P09923 with tags, fused parts or gaps): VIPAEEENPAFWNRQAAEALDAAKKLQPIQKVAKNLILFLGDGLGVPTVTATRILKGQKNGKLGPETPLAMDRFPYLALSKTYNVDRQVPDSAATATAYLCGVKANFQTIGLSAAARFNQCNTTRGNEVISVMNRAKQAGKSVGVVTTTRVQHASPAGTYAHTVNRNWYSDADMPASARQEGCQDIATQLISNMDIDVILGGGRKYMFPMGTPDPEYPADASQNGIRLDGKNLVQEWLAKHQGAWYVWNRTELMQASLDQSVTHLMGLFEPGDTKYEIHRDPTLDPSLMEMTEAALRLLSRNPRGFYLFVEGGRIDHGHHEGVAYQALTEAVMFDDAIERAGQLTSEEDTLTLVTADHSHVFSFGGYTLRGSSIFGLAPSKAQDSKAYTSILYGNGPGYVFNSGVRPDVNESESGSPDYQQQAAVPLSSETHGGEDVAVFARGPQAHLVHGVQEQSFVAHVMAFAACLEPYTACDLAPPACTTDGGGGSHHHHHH


Tests used:
ALPP = ALPP (Homo sapiens, UniProt P05187); test: BLI binding kinetics, human ALPP immobilised on AR2G sensors (KD / KD apparent); conditions: VHH domains
ALPP, sequence (P05187 with tags, fused parts or gaps): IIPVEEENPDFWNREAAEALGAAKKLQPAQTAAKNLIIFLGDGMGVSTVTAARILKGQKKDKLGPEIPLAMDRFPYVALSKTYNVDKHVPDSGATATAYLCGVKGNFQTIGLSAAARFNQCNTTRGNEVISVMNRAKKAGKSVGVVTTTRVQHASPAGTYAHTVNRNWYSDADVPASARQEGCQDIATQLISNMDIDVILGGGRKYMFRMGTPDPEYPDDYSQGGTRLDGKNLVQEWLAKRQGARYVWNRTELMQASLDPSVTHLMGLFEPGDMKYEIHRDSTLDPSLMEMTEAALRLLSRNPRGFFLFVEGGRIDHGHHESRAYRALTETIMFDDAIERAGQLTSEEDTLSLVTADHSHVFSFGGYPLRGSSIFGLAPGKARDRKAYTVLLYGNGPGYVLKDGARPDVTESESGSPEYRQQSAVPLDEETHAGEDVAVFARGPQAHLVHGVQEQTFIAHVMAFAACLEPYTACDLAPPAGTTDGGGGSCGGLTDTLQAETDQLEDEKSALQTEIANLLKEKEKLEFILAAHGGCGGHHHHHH
Procedure: (§1) Binding kinetics were determined using the Biolayer Interferometry (BLI) Octet K2 system (Sartorius). Human ALPP, ALPPL2, ALPL (each fused with a cysteine stabilised leucine zipper) and ALPI, (SEQ ID NO: 265, SEQ ID NO: 266 and SEQ ID NO: 267 and SEQ ID NO: 264 respectively) were immobilised in sodium acetate pH5 buffer to AR2G sensors using amine coupling. All assays were conducted in PBS with a plate temperature of 25° C. Ka (M^−1s^−1), Kd (s^−1) and KD (nM) values were determined using Octet Data Analysis High Throughput software (ForteBio) for Biolayer Interferometry.
(§2) Binding kinetics were determined using the Biolayer Interferometry (BLI) Octet K2 or R4 system (Sartorius). Human ALPP, ALPPL2 and ALPL all fused with a disulphide stabilised leucine zipper (SEQ ID NO: 265, SEQ ID NO: 266, and SEQ ID NO: 267) and ALPI His (SEQ ID NO: 264) were used in BLI experiments. For KD apparent measurements, the ALPP proteins were immobilised in sodium acetate pH5 buffer to AR2G sensors using amine coupling. To measure 1:1 interactions, AHC biosensors were used to immobilise Fc-fused proteins. All assays were conducted in HBS-EP with a plate temperature of 25° C. Ka (M^−1s^−1), Kd (s^−1) and KD (nM) values were determined using Octet Data Analysis High Throughput software (Sartorius) for Biolayer Interferometry.
as §2, with “NO:264)” for “NO: 264)”

Human ALPPL2 = Human ALPPL2 (Homo sapiens, UniProt P10696); test: BLI binding kinetics, human ALPPL2 immobilised on AR2G sensors (KD / KD apparent); conditions: VHH domains
Human ALPPL2, sequence (P10696 with tags, fused parts or gaps): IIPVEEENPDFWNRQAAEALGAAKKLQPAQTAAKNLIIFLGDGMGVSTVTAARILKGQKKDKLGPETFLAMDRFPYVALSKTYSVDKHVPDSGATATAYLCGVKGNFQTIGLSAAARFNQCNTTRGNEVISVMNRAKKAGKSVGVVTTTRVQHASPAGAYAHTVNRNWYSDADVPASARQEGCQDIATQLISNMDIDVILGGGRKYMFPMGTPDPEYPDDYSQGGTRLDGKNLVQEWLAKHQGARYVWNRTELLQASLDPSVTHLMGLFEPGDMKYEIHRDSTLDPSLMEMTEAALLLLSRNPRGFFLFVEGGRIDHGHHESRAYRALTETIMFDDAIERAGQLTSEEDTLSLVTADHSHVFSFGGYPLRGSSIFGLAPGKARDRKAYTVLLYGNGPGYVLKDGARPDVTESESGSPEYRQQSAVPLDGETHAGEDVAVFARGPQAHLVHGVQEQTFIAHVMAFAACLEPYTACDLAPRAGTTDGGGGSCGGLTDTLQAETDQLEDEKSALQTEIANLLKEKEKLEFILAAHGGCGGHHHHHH
Procedure: as §1, §2
as §2, with “NO:264)” for “NO: 264)”

ALPI His homodimer = biological target: T1, ALPI His homodimer; test: ELISA binding to ALPI; conditions: 500 ng purified VHH
Procedure: ELISA was used to test the binding and specificity of the VHHs. ALPP CysHis (SEQ ID NO: 263), ALPI His homodimer (SEQ ID NO: 264) or BSA (Thermo Fisher) were coated onto plates and 500 ng of each purified VHH added. Anti-Llama—HRP antibody was used for detection.

hALPI = biological target: T2, hALPI; test: BLI binding to ALPI His; conditions: VHH-hFc fusions, very low response values
Procedure: as §1
Binding kinetics were determined using the Biolayer Interferometry (BLI) Octet K2 or R4 system (Sartorius). Human ALPP, ALPPL2 and ALPL all fused with a disulphide stabilised leucine zipper (SEQ ID NO: 265, SEQ ID NO: 266, and SEQ ID NO: 267) and ALPI His (SEQ ID NO: 264) were used in BLI experiments. […] Ka (M^−1s^−1), Kd (s^−1) and KD (nM) values were determined using Octet Data Analysis High Throughput software (Sartorius) for Biolayer Interferometry.
Binding kinetics were determined using the Biolayer Interferometry (BLI) Octet K2 or R4 system (Sartorius). […] Ka (M^−1s^−1), Kd (s^−1) and KD (nM) values were determined using Octet Data Analysis High Throughput software (Sartorius) for Biolayer Interferometry.

| hALPP Ka (ALPP) [M⁻¹ s⁻¹] | hALPP Kd (ALPP) [s⁻¹] | hALPPL2 Ka (Human ALPPL2) [M⁻¹ s⁻¹] | hALPPL2 Kd (Human ALPPL2) [s⁻¹] | ELISA hALPI (ALPI His homodimer) | Kd (hALPI) [nM] | Molecule |
| --- | --- | --- | --- | --- | --- | --- |
| 129000 | 0.000028 | 471000 | 0.000288 | No Binding |  | C07: ALPP/ALPPL2 targeting VHH domain, SEQ ID NO: 25 (protein) VHH: QVQLVESGGGLVQAGESLRLACAASGTIFSGNAVGWYRQAPEKQREWVSSITDYGDTDYAEAVKGRFTISRDNAKNTVYLQMNSLKPEDTAVYYCYVYQRGESEEYWGQGTQVTVSS |
| 85100 | <1e-07 | 754000 | 0.00022 | No Binding |  | D04: ALPP/ALPPL2 targeting VHH domain, SEQ ID NO: 26 (protein) VHH: QVQLVESGGGLVQPGGSLRLSCAASESTFSINVMGWYRQAPGKQRELVATITSGDITNYADSVKGRFTISRDNAENTVYLRTNSLKPEDTAVYYCNARGEYHSGNEYDYWGQGTQVTVSS |
| 106000 | <1e-07 | 1050000 | 0.0000875 | No Binding |  | E06: ALPP/ALPPL2 targeting VHH domain, SEQ ID NO: 30 (protein) VHH: QVHLVESGGGLVQAGGSLRLSCAASRRSFSEYAMGWFRQAPGKEREFVAAIGWSGVIEYADSVKGRFTISRDNAKDTVYLQMNSLKPEDTAVYYCAAGLGIRVVSQTPAYWGQGTQVTVSS |
| 54200 | <1e-07 | 1640000 | 0.000141 | No Binding |  | E10: ALPP/ALPPL2 targeting VHH domain, SEQ ID NO: 31 (protein) VHH: QVQLVESGGGLVQAGGSLRLSCAVSGRALSDYNIGWFRQAPGKEREFVARKTWDGSSTRYDDSVKGRFTVSIEDAKNTAYLQMSSLKTEDTAVYYCAAGRYSRARGWEYDYWGQGTQVTVSS |
| 13900 | <1e-07 | 3740000 | 0.000356 | No Binding |  | F05: ALPP/ALPPL2 targeting VHH domain, SEQ ID NO: 34 (protein) VHH: QVQLVESGGGLVQAGGSLRLSCAASGRAFGDYNIGWFRQAPGKEREFVARRTWDGSSTRYDDSVKGRFTVSIDNAKNTAYLQMNSLKTEDTAVYYCAAGRYSRVRGWEYDYWGQGTQVTVSS |
| 117000 | 0.000154 | 133000 | 0.000672 | No Binding |  | A06: ALPP/ALPPL2 targeting VHH domain, SEQ ID NO: 17; tested C-terminally His-tagged (protein, C-terminal His tag, tested C-terminally His-tagged) VHH: QVHLVESGGGLVQAGGSLRLSCAASGRTFLSMGWFRQAPGKEREFVAAISWTGGSTGYADSVKGRFTISRESDKETMYLQMNSLKPEDTAVYYCAARGDVYYGGDDATRYKYWGQGTQVTVSS |
| 162000 | 0.000191 | 482000 | 0.00014 | No Binding | 148 | B01: ALPP/ALPPL2 targeting VHH domain, SEQ ID NO: 20 (protein) VHH: QVQLVESGGGLVQAGGSLRLSCEVTRSPMPIDTMAWYRQAPGRQRELVAIISRSGSTNYADSVKGRFTISRNDTKSTMYKSTMYLKMNTLELEDTGVYYCNAVGLWNGAEYWGQGTQVTVSS |
| 260000 | <1e-07 |  |  | No Binding |  | A05: ALPP/ALPPL2 targeting VHH domain, SEQ ID NO: 16; tested C-terminally His-tagged (protein, C-terminal His tag, tested C-terminally His-tagged) VHH: QVQLVESGGGLVQAGASLTLSCAASGFTFNTRSIVWFRQAPGKEREAVSCISKVAGSTYYGDSVQGRFSSSTDNAKNTVSLQMNSLKPEDTAVYTCAASFAPNCYGWSVAANMEYWGEGTMVTVSS |
| 252000 | <1e-07 | 684000 | <1e-07 | No Binding | 10.8 | F08: ALPP/ALPPL2 targeting VHH domain, SEQ ID NO: 35 (protein) VHH: QVQLVESGGGSVQAGGSLRLSCAASGPSLSNYAMGWFRQAPGKEREFVAGISWGGGRTSYTDSVKGRFTISRDNAKNTVYLQMNNLKPEDTGVYYCAGRYGRGRNVEYEYDYWGQGTQVTVSS |
| 67300 | 0.000013 | 2300000 | 0.0028 | No Binding |  | D10: ALPP targeting VHH domain, SEQ ID NO: 28 (protein) VHH: QVQLVESGGGLVQPGGSLRLSCAASGSIFSVNTMGWYRQAPGKQRDLVAVATSGGTIHYADSVKGRFTISRDNAKNTVYLQMNSLKPEDTAVYYCNLVVPYGMIAGDHDYWGQGTKVTVSS |
